We go through 61 sequences from the supplement of paper PMC7877785.

This data set is described as follows: self-splicing fitness, log relative to wild type (ln ratio); higher = more splicing; Tetrahymena group I intron in knt gene, E. coli kanamycin selection, DiMSum; sequences stand for … in CUCUCU…GGAGGGAAAAGUUAUCAGGCAUGCACCUGGUAGCUAGUCUUUAAACCAAUAGAUUGCAUCGGUUUAAAAGGCAAGACCGUCAAAUUGCGGGAAAGGGGUCAACAGCCGUUCAGUACCAAGUCUCAGGGGAAACUUUGAGAUGGCCUUGCAAAGGGUAUGGUAAUAAGCUGACGGACAUGGUCCUAACCACGCAGCCAAGUCCUAAGUCAACAGAUCUUCUGUUGAUAUGGAUGCAGUUCACAGACUAAAUGUCGGUCGGGGAAGAUGUAUUCUUCUCAUAAGAUAUAGUCGGACCUCUCCUUAAUGGGAGCUAGCGGAUGAAGUGAUGCAACACUGGAGCCGCUGGGAACUAAUUUGUAUGCGAAAGUAUAUUGAUUAGUUUUGGAGUACUCGUGGUCG
A digest of the protocol: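 Colonies from six replicate transformations of E. coli BL21(DE3) were pooled and amplicon-sequenced on an Illumina HiSeq 2500. The library placed an intron with all eight P1ex-region nucleotides randomised inside the knt kanamycin-resistance gene on pET-22b(+), and cells grew overnight at 37°C or 30°C on LB agar with or without 25 μg/mL kanamycin (plus 100 μg/mL carbenicillin, 50 μM IPTG, 0.2% rhamnose). Fitness is the DiMSum error-weighted combination of wild-type-normalised replicate fold changes, kanamycin versus none.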

± gives the uncertainty stated by the source.

Take GGUAAGCAAUAUUACGCGCA: the “self-splicing fitness (ln)” value (30 °C) is -0.159 ± 0.074 and the “self-splicing fitness (ln)” value (37 °C) is -0.401 ± 0.085.
The matching figures for AAAGAGCAAUAUUACGAAAG: -3.63 ± 0.24 and -3.18 ± 0.24.
The like results for CAGAAGCAAUAUUACGGCCG were, in that order, -0.0187 ± 0.082 and -0.102 ± 0.14.
As for CAUCAGCAAUAUUACGGUCA, the “self-splicing fitness (ln)” value runs as follows: (30 °C) -1.11 ± 0.076; (37 °C) -0.81 ± 0.098.
The like results for UCAAAGCAAUAUUACGACAG were, in that order, -2.66 ± 0.14 and -1.25 ± 0.14.
The like results for GGACAGCAAUAUUACGGAUU were, in that order, -1.33 ± 0.066 and 0.0211 ± 0.089.
The matching figures for CAUUAGCAAUAUUACGGCCG: 0.721 ± 0.13 and 0.409 ± 0.14.
On to AUCGAGCAAUAUUACGUAUU, for which the “self-splicing fitness (ln)” value is, setting by setting: (30 °C) -3.67 ± 0.21; (37 °C) -2.5 ± 0.18.
On to CAGGAGCAAUAUUACGCCCU, for which the “self-splicing fitness (ln)” value (37 °C) was -1.65 ± 0.32.
Turning to ACUUAGCAAUAUUACGUGAG, the “self-splicing fitness (ln)” value was -0.348 ± 0.067 (30 °C) and -0.0975 ± 0.087 (37 °C).
On to AGCAAGCAAUAUUACGAUGU, for which the “self-splicing fitness (ln)” value (30 °C) was -1.92 ± 0.068 and the “self-splicing fitness (ln)” value (37 °C) was -0.392 ± 0.076.
Take GCUGAGCAAUAUUACGCUUG: the “self-splicing fitness (ln)” value (30 °C) was -3.25 ± 0.29 and the “self-splicing fitness (ln)” value (37 °C) is -1.57 ± 0.29.
Consider CACUAGCAAUAUUACGCCUC, for which the “self-splicing fitness (ln)” value (37 °C) was -1.72 ± 0.23.
Regarding GACGAGCAAUAUUACGGAGU, the “self-splicing fitness (ln)” value runs as follows: (30 °C) -3.71 ± 0.35; (37 °C) -2.49 ± 0.24.
Take AGUGAGCAAUAUUACGGGAU: the “self-splicing fitness (ln)” value is, setting by setting: (30 °C) -3.44 ± 0.26; (37 °C) -1.7 ± 0.29.
The like results for CCAAAGCAAUAUUACGUGAC were, in that order, -4.61 ± 0.32 and -2.12 ± 0.26.
The matching figures for UAGGAGCAAUAUUACGUGUC: -3.27 ± 0.34 and -1.82 ± 0.27.
Regarding AGAAAGCAAUAUUACGAGCU, the “self-splicing fitness (ln)” value was -0.0239 ± 0.055 (30 °C) and 0.0125 ± 0.072 (37 °C).
With UCCUAGCAAUAUUACGCUUU, for the setting “37 °C”, the “self-splicing fitness (ln)” value is -1.85 ± 0.29.
Take UGGAAGCAAUAUUACGGCGG: the “self-splicing fitness (ln)” value reads like this: (30 °C) -0.545 ± 0.08; (37 °C) -0.13 ± 0.1.
With UCACAGCAAUAUUACGACCG, the “self-splicing fitness (ln)” value by setting is: (30 °C) -0.795 ± 0.11; (37 °C) 0.149 ± 0.12.
The matching figures for GAUUAGCAAUAUUACGGUGU: -2.74 ± 0.09 and -0.798 ± 0.083.
As for AAAAAGCAAUAUUACGACCU, the “self-splicing fitness (ln)” value (30 °C) was found to be 0.273 ± 0.072 and the “self-splicing fitness (ln)” value (37 °C) amounted to 0.617 ± 0.089.
The matching figures for UCAAAGCAAUAUUACGACGC: -3.24 ± 0.16 and -2.09 ± 0.14.
As to CCCAAGCAAUAUUACGCAAA, the “self-splicing fitness (ln)” value runs as follows: (30 °C) -3.35 ± 0.13; (37 °C) -2.71 ± 0.14.
The matching figures for UAGAAGCAAUAUUACGUGAU: -2.73 ± 0.11 and -1.84 ± 0.11.
The like results for GGUAAGCAAUAUUACGAUGC were, in that order, -0.616 ± 0.13 and -0.401 ± 0.16.
The matching figures for CCUAAGCAAUAUUACGCCGG: -3.61 ± 0.24 and -2.57 ± 0.21.
On to GCAGAGCAAUAUUACGGGCA, for which the “self-splicing fitness (ln)” value is -2.97 ± 0.17 (30 °C) and -1.67 ± 0.15 (37 °C).
For the sequence AGGGAGCAAUAUUACGGCCG, the “self-splicing fitness (ln)” value runs as follows: (30 °C) -1.81 ± 0.16; (37 °C) -1.96 ± 0.16.
The like results for CAGUAGCAAUAUUACGGACU were, in that order, -2.38 ± 0.16 and -0.698 ± 0.12.
The like results for UUAAAGCAAUAUUACGAGUG were, in that order, -0.826 ± 0.058 and -0.0213 ± 0.08.
The like results for CUUCAGCAAUAUUACGGCAA were, in that order, -2.87 ± 0.48 and -1.92 ± 0.41.
Consider AGUAAGCAAUAUUACGCCUG, for which the “self-splicing fitness (ln)” value is, setting by setting: (30 °C) -2.19 ± 0.12; (37 °C) -1.15 ± 0.12.
As for GAUAAGCAAUAUUACGCCAC, the “self-splicing fitness (ln)” value is -3.11 ± 0.44 (30 °C) and -2.13 ± 0.36 (37 °C).
The matching figures for GCUAAGCAAUAUUACGACAU: -0.734 ± 0.013 and -0.156 ± 0.033.
The like results for ACCUAGCAAUAUUACGAACG were, in that order, -1.25 ± 0.12 and -1.07 ± 0.19.
The like results for CCGAAGCAAUAUUACGGAGU were, in that order, -1.88 ± 0.16 and -2.98 ± 0.25.
Consider UGAAAGCAAUAUUACGGAGG, for which the “self-splicing fitness (ln)” value reads like this: (30 °C) -3.75 ± 0.2; (37 °C) -2.72 ± 0.26.
As to UGAGAGCAAUAUUACGCGCC, the “self-splicing fitness (ln)” value by setting is: (30 °C) -1.44 ± 0.33; (37 °C) -1.09 ± 0.47.
The matching figures for GUAUAGCAAUAUUACGUCUC: -1.21 ± 0.15 and -0.282 ± 0.15.
Take CAAUAGCAAUAUUACGGAAU: the “self-splicing fitness (ln)” value runs as follows: (30 °C) -3.67 ± 0.35; (37 °C) -3.11 ± 0.33.
The like results for GUAAAGCAAUAUUACGUUUA were, in that order, -1.08 ± 0.077 and -0.69 ± 0.11.
With UGUGAGCAAUAUUACGAGAU, the “self-splicing fitness (ln)” value (30 °C) was -3.75 ± 0.37 and the “self-splicing fitness (ln)” value (37 °C) is -2.53 ± 0.41.
The like results for CCGUAGCAAUAUUACGCCGC were, in that order, -3.84 ± 0.26 and -2.68 ± 0.34.
GGGAAGCAAUAUUACGGUGU: the “self-splicing fitness (ln)” value runs as follows: (30 °C) -2.2 ± 0.1; (37 °C) -0.483 ± 0.13.
The like results for UGUUAGCAAUAUUACGGCCC were, in that order, -2.13 ± 0.36 and -1.13 ± 0.41.
In the case of AAUAAGCAAUAUUACGCCUU, the “self-splicing fitness (ln)” value reads like this: (30 °C) -0.502 ± 0.12; (37 °C) -0.0645 ± 0.18.
The matching figures for ACAUAGCAAUAUUACGCCUA: -1.7 ± 0.24 and -0.307 ± 0.2.
Consider CAUAAGCAAUAUUACGCAGU, for which the “self-splicing fitness (ln)” value is -3.05 ± 0.23 (30 °C) and -0.865 ± 0.13 (37 °C).
AGGGAGCAAUAUUACGGAUA: the “self-splicing fitness (ln)” value (30 °C) is -3.15 ± 0.31.
In the case of CUACAGCAAUAUUACGGCCG, the “self-splicing fitness (ln)” value by setting is: (30 °C) -0.378 ± 0.091; (37 °C) -0.0396 ± 0.11.
The matching figures for CAGCAGCAAUAUUACGUUGA: -2.82 ± 0.16 and -1.93 ± 0.18.
The like results for GUAUAGCAAUAUUACGGCGA were, in that order, -1.21 ± 0.097 and -0.087 ± 0.1.
The like results for ACCCAGCAAUAUUACGCCGC were, in that order, -3.12 ± 0.18 and -2.37 ± 0.2.
Regarding GUGAAGCAAUAUUACGCAAA, the “self-splicing fitness (ln)” value was -2.12 ± 0.12 (30 °C) and -1.52 ± 0.16 (37 °C).
The like results for CAGGAGCAAUAUUACGAGCA were, in that order, -2.15 ± 0.33 and -1.53 ± 0.36.
Turning to UCCGAGCAAUAUUACGUAUG, the “self-splicing fitness (ln)” value (30 °C) was -2.36 ± 0.17 and the “self-splicing fitness (ln)” value (37 °C) is -2.67 ± 0.24.
The matching figures for GGCCAGCAAUAUUACGACGU: -0.821 ± 0.083 and 0.2 ± 0.12.
The matching figures for UAUGAGCAAUAUUACGGUAA: -3.33 ± 0.35 and -2.78 ± 0.35.
Regarding AGGCAGCAAUAUUACGGCGU, the “self-splicing fitness (ln)” value was -0.172 ± 0.063 (30 °C) and -0.0953 ± 0.079 (37 °C).
